Experimental findings from patent publication US20240376168A1 (LETO LABORATORIES, published 2024) are described below.

Positions count from the first letter of the chain named. Names and notes keep the numbering of the source.

Test [1] addresses β-Klotho overexpressed on HEK293 cells. In words: cell-based or functional assay.
The target in test [2] is T1, extracellular domain of human receptor β-Klotho with a C-terminal Poly-His tag (human, UniProt Q86Z14 1-996).
T1 construct: extracellular domain; Immobilised on an NTA chip at 1,000 RU; also called human β-Klotho protein; KLB; not shown: Poly-His tag at the C-terminus
T1 sequence (looked up): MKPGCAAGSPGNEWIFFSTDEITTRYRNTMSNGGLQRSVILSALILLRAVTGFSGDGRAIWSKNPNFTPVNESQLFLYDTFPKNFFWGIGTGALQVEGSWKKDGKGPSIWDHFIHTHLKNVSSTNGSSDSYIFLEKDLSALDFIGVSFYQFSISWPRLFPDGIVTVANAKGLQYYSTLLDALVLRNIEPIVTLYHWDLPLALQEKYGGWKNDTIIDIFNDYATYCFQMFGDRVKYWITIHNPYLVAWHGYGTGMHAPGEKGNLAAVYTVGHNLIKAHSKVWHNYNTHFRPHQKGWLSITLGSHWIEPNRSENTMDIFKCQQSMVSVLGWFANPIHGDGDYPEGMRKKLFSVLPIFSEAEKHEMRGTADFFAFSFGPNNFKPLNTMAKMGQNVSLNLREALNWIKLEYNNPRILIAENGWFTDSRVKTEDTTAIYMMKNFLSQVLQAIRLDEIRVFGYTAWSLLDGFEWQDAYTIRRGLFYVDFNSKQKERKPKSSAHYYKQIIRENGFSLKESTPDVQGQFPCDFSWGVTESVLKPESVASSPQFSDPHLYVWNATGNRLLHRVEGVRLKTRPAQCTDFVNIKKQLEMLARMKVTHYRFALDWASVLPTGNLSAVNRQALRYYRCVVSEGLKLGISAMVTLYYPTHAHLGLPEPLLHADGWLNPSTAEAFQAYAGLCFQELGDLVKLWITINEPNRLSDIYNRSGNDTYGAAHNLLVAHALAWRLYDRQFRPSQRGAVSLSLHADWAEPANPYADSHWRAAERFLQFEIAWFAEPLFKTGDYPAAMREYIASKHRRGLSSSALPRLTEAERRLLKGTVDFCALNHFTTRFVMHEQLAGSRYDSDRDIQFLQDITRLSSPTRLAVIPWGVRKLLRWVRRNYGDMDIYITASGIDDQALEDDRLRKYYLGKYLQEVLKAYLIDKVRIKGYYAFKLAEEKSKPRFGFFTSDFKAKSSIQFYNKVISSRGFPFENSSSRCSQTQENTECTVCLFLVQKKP
Kind of test: SPR, Biacore-8K; His-tagged β-Klotho ECD on NTA chip, FGF21 mutant as analyte, kinetic fit. How it is done:
An extracellular domain of a human receptor β-Klotho (a Poly-His tag was fused at a C-terminus) was expressed and purified in the present disclosure, and a sequence of the protein was acquired from the Uniprot database. An affinity assay was conducted with Biacore-8K. Specifically, a human β-Klotho protein was immobilized on an NTA chip at a fixed amount of 1,000 RU with PBS (including 0.05% Tween-20) as a flow buffer. An FGF21 mutant was allowed to flow through the chip at different concentrations to determine the binding of the FGF21 mutant to β-Klotho. Final data were fitted using kinetics, and a dissociation constant KD was calculated.

A word on the Kd: it is a measure of binding affinity in units of concentration. A higher Kd goes with a looser complex.

B1: FGF21 (121Q, 168L) mutant 1414 (ligand)
chain: HPIPDSSPLLQFGGQVRQRYLYTDDAQQTEAHLEIREDGTVGGAADQSPESLLQLKALKPGVIQILGVKTSRFLCQRPDGALYGSLHFDPEACSFRELLLEDGYNVYQSEAHGLPLHLPGQKSPHRDPAPRGPARFLPLPGLPPALPEPPGILAPQPPDVGSSDPLSLVGPSQGRSPSYAS
notes: Control that stands for wild-type FGF21; An alanine is added before His1 of mature FGF21; also called FGF21 control mutant 1414
B1: in test [1], the “Activity in β-Klotho-ERK cells (EC50)” value was found to be 0.85 nM. In addition, the Kd in test [2] worked out at 51.2 nM.

B2: FGF21 (P171G) mutant 1407 (ligand)
chain: B1 chain with P171G
notes: also called FGF21 mutant P171G
For B2, the “Activity in β-Klotho-ERK cells (EC50)” value in test [1] came out at 1.15 nM. This molecule returned a Kd in test [2] of 42.5 nM.

B3: FGF21 (170C/173C) mutant 1411 (ligand)
chain: B1 chain with G170C, Q173C
modifications: disulfide bond introduced between 170C and 173C
notes: Only a trace amount of incorrect dimers is reported
Regarding B3, in test [1], the “Activity in β-Klotho-ERK cells (EC50)” value is 0.999 nM. Moreover, the affinity in test [2], expressed as Kd, was 69.4 nM.

B4: FGF21 (Del-P171) mutant 1408 (ligand)
chain: HPIPDSSPLLQFGGQVRQRYLYTDDAQQTEAHLEIREDGTVGGAADQSPESLLQLKALKPGVIQILGVKTSRFLCQRPDGALYGSLHFDPEACSFRELLLEDGYNVYQSEAHGLPLHLPGQKSPHRDPAPRGPARFLPLPGLPPALPEPPGILAPQPPDVGSSDPLSLVGSQGRSPSYAS
For the molecule B4, in test [1], the “Activity in β-Klotho-ERK cells (EC50)” value was determined as 1.48 nM. In addition, the Kd in test [2] was found to be 67.5 nM.

B5: FGF21 (170C/Ins-172G/173C) mutant 1409 (ligand)
chain: HPIPDSSPLLQFGGQVRQRYLYTDDAQQTEAHLEIREDGTVGGAADQSPESLLQLKALKPGVIQILGVKTSRFLCQRPDGALYGSLHFDPEACSFRELLLEDGYNVYQSEAHGLPLHLPGQKSPHRDPAPRGPARFLPLPGLPPALPEPPGILAPQPPDVGSSDPLSLVCPGCQGRSPSYAS
modifications: intramolecular disulfide bond between C170 and C173
Consider B5, for which, in test [1], the “Activity in β-Klotho-ERK cells (EC50)” value worked out at 2.14 nM. Moreover, the Kd in test [2] is 59.4 nM.

B6: FGF21 (170C/Ins-172S/173C) mutant 1413 (ligand)
chain: B5 chain with G172S
modifications: disulfide bond introduced between 170C and 173C
notes: A small number of incorrect dimers is reported
Consider B6, for which the “Activity in β-Klotho-ERK cells (EC50)” value in test [1] was found to be 2.09 nM. In test [2], this molecule came in with a Kd of 64.6 nM.

B7: FGF21 (170C/Ins-172A/173C) mutant 1412 (ligand)
chain: B5 chain with G172A
modifications: disulfide bond introduced between 170C and 173C
notes: as for B6
For the molecule B7, the “Activity in β-Klotho-ERK cells (EC50)” value in test [1] was 2.52 nM. The molecule also had a Kd in test [2] of 69.9 nM.
